Experimental data as given in patent US20120094909A1 (Bristol-Myers Squibb, published 2012).

Experiments:
[1] = target: T1, human PCSK9 (proprotein convertase subtilisin kexin type 9) (human, UniProt Q8NBP7 31-692); assay: cell-based or functional assay
[2] = target: T1, human PCSK9 (proprotein convertase …); assay: PCSK9:EGFA FRET, competitor EGFA peptide

LDLR Depletion (% inhibition at 75 nM) [1] | EC50 [2] | LDLR Depletion EC50 [1] | Binder
91.7% | 6.3 nM |  | 2451B05 (designed binder) MGVSDVPRDLEVVAATPTSLLISWDAPAGGYGYYRITYGETGGNSPVQEFTVPSSKGTATISGLKPGVDYTITVYAVEFDYPGSGYYHRPISINYRTEIDKPSQHHHHHH
113% | 2.8 nM |  | 2451F03 (designed binder) MGVSDVPRDLEVVAATPTSLLISWDPPAEGYGYYRITYGETGGNSPVQEFTVPVSKGTATISGLKPGVDYTITVYAVEFNFPGSGYYHRPISINYRTEIDKPSQHHHHHH
95.8% | 2.8 nM |  | 2451H01 (designed binder) MGVSDVPRDLEVVAATPTSLLISWDAPAAGYGYYRITYGETGGNSPVQEFTVPVSKGTATISGLKPGVDYTITVYAVEYDFPGSGYYHRPISINYRTEIDKPSQHHHHHH
115% | 2.8 nM |  | 2451D05 (designed binder) MGVSDVPRDLEVVAATPTSLLISWDAPAGAYGYYRITYGETGGNSPVQEFTVPVSKGTATISGLKPGVDYTITVYAVEFDFPGSGYYHRPISINYRTEIDKPSQHHHHHH
90.8% | 3.8 nM |  | 2451G01 (designed binder) MGVSDVPRDLEVVAATPTSLLISWDAPAGGYGYYRITYGETGGNSPVQEFTVPSSKGTATISGLKPGVDYTITVYAVEFDFPGSGYYHRPISINYRTEIDKPSQHHHHHH
185% | 3.1 nM |  | 2381D02 (designed binder) MGVSDVPRDLEVVAATPTSLLISWEPFSRLPGGGEYYRITYGETGGNSPLQQFTVPGSKGTATISGLKPGVDYTITVYAVEYPYDHSGYYHRPISINYRTEIDKPSQHHHHHH
120% | 3.5 nM |  | 2381B06 (designed binder) MGVSDVPRDLEVVAATPTSLLISWEPFSRLPGGGEYYRITYGETGGNSPLQQFTVPGSKGTATISGLKPGVDYTITVYAVEYPYPHSGYYHRPISINYRTEIDKPSQHHHHHH
70.2% | 3.4 nM |  | 2381G03 (designed binder) MGVSDVPRDLEVVAATPTSLLISWEPFSRLPGGGEYYRITYGETGGNSPLQQFTVPGSKGTATISGLKPGVDYTITVYAVEFPYAHSGYYHRPISINYRTEIDKPSQHHHHHH
100% | 3.3 nM |  | 2381A04 (designed binder) MGVSDVPRDLEVVAATPTSLLISWEPFSRLPGGGEYYRITYGETGGNSPLQQFTVPGSKGTATISGLKPGVDYTITVYAVEYPYPFSGYYHRPISINYRTEIDKPSQHHHHHH
89.8% | 3.4 nM |  | 2381H03 (designed binder) MGVSDVPRDLEVVAATPTSLLISWEPFSRLPGGGEYYRITYGETGGNSPLQQFTVPGSKGTATISGLKPGVDYTITVYAVEYPYAHSGYFHRPISINYRTEIDKPSQHHHHHH
 | 2.5 nM | 29 nM | 1922G04(R25D) (designed binder) MGVSDVPRDLEVVAATPTSLLISWDPPSHAYGYYRITYGETGGNSPVQEFTVPIGKGTATISGLKPGVDYTITVYAVEYPWKGSGYYHRPISINYRTGSGSHHHHHH
 | 3.5 nM | 29 nM | 1922G04(R25E) (designed binder) MGVSDVPRDLEVVAATPTSLLISWEPPSHAYGYYRITYGETGGNSPVQEFTVPIGKGTATISGLKPGVDYTITVYAVEYPWKGSGYYHRPISINYRTGSGSHHHHHH
